Data reported in US20120282271.

Tests used:
[1] = tested on: pro-MSP (single-chain recombinant human pro-macrophage-stimulating protein, C672A)
[2] = tested on: pro-MSP-R483E (cleavage-site mutant of pro-MSP)
Chain of pro-MSP-R483E (cleavage-site mutant of pro-MSP) (chain, as listed by the source R483E): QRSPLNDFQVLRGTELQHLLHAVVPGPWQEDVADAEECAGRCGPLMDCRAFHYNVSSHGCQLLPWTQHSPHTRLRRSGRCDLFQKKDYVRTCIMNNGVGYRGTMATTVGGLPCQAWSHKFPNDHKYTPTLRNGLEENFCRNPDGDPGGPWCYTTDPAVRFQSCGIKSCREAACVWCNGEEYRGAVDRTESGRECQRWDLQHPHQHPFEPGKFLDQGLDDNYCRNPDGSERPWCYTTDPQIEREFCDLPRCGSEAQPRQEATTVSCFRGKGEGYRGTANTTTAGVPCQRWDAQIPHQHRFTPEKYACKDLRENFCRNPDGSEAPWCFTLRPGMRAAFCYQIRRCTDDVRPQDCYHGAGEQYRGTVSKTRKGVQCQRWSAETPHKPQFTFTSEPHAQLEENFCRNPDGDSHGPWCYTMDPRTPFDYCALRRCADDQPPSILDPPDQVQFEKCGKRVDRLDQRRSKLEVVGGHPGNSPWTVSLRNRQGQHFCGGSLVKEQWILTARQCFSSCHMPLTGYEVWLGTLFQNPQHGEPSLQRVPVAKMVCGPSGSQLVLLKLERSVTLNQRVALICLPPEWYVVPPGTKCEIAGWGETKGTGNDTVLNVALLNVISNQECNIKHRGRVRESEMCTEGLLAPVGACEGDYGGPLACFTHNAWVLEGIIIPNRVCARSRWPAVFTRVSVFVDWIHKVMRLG

Chain of extracellular domain of human recombinant hepsin (chain, as listed by the source): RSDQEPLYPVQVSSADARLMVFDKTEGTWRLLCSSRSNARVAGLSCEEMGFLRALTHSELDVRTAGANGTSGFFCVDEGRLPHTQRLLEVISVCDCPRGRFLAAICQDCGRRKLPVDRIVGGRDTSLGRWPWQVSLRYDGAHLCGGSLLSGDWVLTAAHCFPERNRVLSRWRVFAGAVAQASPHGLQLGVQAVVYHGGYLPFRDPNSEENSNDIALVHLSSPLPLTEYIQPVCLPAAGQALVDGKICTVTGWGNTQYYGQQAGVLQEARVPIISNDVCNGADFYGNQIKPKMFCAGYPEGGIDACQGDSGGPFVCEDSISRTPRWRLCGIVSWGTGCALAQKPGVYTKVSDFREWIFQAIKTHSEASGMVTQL

## extracellular domain of human recombinant hepsin
[1]
  proteolytic activation of pro-MSP, gel-mobility shift on reducing SDS-PAGE (hepsin 1.25-10 nM, 37° C.): Hepsin activated pro-MSP in a dose-dependent and time dependent manner
[2]
  proteolytic processing by hepsin, SDS-PAGE: Hepsin did not cleave this mutant pro-MSP despite prolonged incubation (24 hours)
